Legend:
BAFF [1] = molecular target: T1, BAFF (Homo sapiens, UniProt Q9Y275); assay: NNS phage library of TACI CRD2 (positions 78, 79, 84, 92), BAFF selection; format: binding; conditions: amino acid at position F78; after 3 rounds of sorting; large F′ = favorable
T1 construct: made in house
Experimental: (§1) NNS library construction and sorting.
(§2) This new phage library was subjected to sorting against either BAFF, APRIL or the display target antibody. After 3 rounds of sorting, approximately 48 clones were picked from each selection and the DNA sequences of the phage clones were determined. […] The normalized F′ value corrects for display bias and is calculated as the percent occurrence to percent degeneracy ratio for ligand selection divided by the percent occurrence to percent degeneracy ratio for display efficiency. Percent occurrence is calculated by dividing the number of times a particular amino acid appeared at a particular position by the total number of amino acids sequenced at that position followed by multiplying by 100. Percent degeneracy is calculated by dividing the degeneracy in code for a particular amino acid divided by the total degeneracy possible at that position followed by multiplying by 100 (e.g., if only A, G and I were selected, total degeneracy possible would be 5).

APRIL [2] = molecular target: T2, APRIL (Mus musculus, UniProt Q9D777); assay: NNS phage library of TACI CRD2 (positions 78, 79, 84, 92), APRIL selection; format: binding, murine; conditions: amino acid at position F78; after 3 rounds of sorting; large F′ = favorable
T2 construct: made in house
T2 sequence (Q9D777 105-241): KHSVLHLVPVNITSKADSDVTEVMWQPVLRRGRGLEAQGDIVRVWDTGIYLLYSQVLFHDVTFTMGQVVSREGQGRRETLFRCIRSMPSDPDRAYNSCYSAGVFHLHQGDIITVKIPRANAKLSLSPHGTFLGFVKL
Experimental: as §1, §2

APRIL [3] = molecular target: T2, APRIL; assay: Competitive surface plasmon resonance, APRIL binding to immobilized BCMA-Fc; parameters: species or system murine; conditions: competition with immobilized BCMA-Fc
From the text: Surface plasmon resonance (SPR) measurements on a BIAcore 3000 instrument (Pharmacia Biosensor) were used to measure binding affinities of receptors to immobilized APRIL and BAFF by competition binding. […] In these experiments, receptors in solution competed for binding of ligand in solution at room temperature with immobilized BCMA-Fc. BCMA-Fc was coupled to flow cell 2 of a CM4 sensor chip, using the amine coupling protocol supplied by the manufacturer, at a high density (4500 resonance units) so that the initial rate of binding was linearly dependent on the concentration of free ligand. In all experiments flow cell 1 was ethanolamine-blocked and used as the reference cell. Washing with 10 mM HCl regenerated flow cells between sample injections. In order to determine the ligand concentration necessary to obtain the optimal for competition experiments, a preliminary binding study was performed for each ligand where two-fold dilutions of the ligand ranging from 400 nM to 6.25 nM were injected over the BCMA-Fc surface. […] The IC50 values were calculated using a four-parameter curve fit (y=((m1−m4)/(1+(m0/m3)̂m2))+m4) of the initial binding rates for the receptor/control (Vi/Vo) as a function of receptor concentration.

BAFF [4] = molecular target: T1, BAFF; assay: Competitive surface plasmon resonance, BAFF binding to immobilized BCMA-Fc; conditions: competition with immobilized BCMA-Fc
From the text: Surface plasmon resonance (SPR) measurements on a BIAcore 3000 instrument (Pharmacia Biosensor) were used to measure binding affinities of receptors to immobilized APRIL and BAFF by competition binding. […] In these experiments, receptors in solution competed for binding of ligand in solution at room temperature with immobilized BCMA-Fc. BCMA-Fc was coupled to flow cell 2 of a CM4 sensor chip, using the amine coupling protocol supplied by the manufacturer, at a high density (4500 resonance units) so that the initial rate of binding was linearly dependent on the concentration of free ligand. In all experiments flow cell 1 was ethanolamine-blocked and used as the reference cell. Washing with 10 mM HCl regenerated flow cells between sample injections. In order to determine the ligand concentration necessary to obtain the optimal for competition experiments, a preliminary binding study was performed for each ligand where two-fold dilutions of the ligand ranging from 400 nM to 6.25 nM were injected over the BCMA-Fc surface. The concentration of ligand that provided a slope of about 1 for the initial on-rate of the observed sensorgrams was selected as the fixed concentration to be used in the competition experiments. In all experiments where BAFE was the ligand, the buffer used was composed of 10 mM HEPES, pH 7.2, 150 mM NaCl, and 0.005% Tween-20. In all experiments where TRX-APRIL was the ligand selected, the buffer was composed of 20 mM Tris-HCl, pH 8.0, 200 mM NaCl, and 0.005% Tween-20. […] Samples were then passed over the BCMA-Fc-coupled surface. A linear fit of the initial on-rate of the observed sensorgrams was used to calculate the binding rate (V). The IC50 values were calculated using a four-parameter curve fit (y=((m1−m4)/(1+(m0/m3)̂m2))+m4) of the initial binding rates for the receptor/control (Vi/Vo) as a function of receptor concentration.

APRIL [5] = molecular target: T2, APRIL; assay: Competitive ELISA, APRIL; format: binding, murine; conditions: data not shown
BAFF [6] = molecular target: T1, BAFF; assay: Competitive ELISA, BAFF; format: binding; conditions: data not shown

T1 sequence (Q9Y275 82-285 limits assumed): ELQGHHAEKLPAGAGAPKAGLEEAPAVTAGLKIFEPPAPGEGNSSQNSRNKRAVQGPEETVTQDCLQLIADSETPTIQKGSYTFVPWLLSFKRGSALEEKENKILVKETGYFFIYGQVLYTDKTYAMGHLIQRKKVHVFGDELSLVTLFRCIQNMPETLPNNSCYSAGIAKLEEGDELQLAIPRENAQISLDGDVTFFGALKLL

## F78F: phage-displayed TACI CRD2, wild-type F retained at position 78 (NNS library) (SLSCRKEQGKFYDHLLRDCISCASICGQHPKQCAYFCENKLR; CRD2 phage-displayed; UniProt O14836 68-109, looked up, fragment)
BAFF [1]
  F′ BAFF F78: 3
APRIL [2]
  F′ APRIL F78: 2

## TACI CRD1 Loop Swap: human TACI CRD1 (R32-R67) with residues NHQSQRT substituted by GQHPKQ of hTACI CRD2 (RSCPEEQYWDPLLGTCMSCKTICGQHPKQCAAFCR)
APRIL [3]
  affinity for APRIL, comparison in words: increased TACI CRD1 affinity
BAFF [4]
  affinity for BAFF, comparison in words: increased TACI CRD1 affinity

## TACI_d1: first CRD of TACI (residues 32-67), expressed in E. coli (RSCPEEQYWDPLLGTCMSCKTICNHQSQRTCAAFCR)
APRIL [3]
  IC50 for APRIL, in words: in the micromolar range
BAFF [4]
  IC50 for BAFF, in words: in the micromolar range
  affinity for BAFF, comparison in words: an interaction was observed

## TACI_d2: second cysteine-rich domain (CRD2, residues 68-109) of TACI, with four additional residues (GSPW) at the N-terminus (GSPWSLSCRKEQGKFYDHLLRDCISCASICGQHPKQCAYFCENKLR)
APRIL [5]
  binding to APRIL, in words: sufficient for high-affinity binding
BAFF [6]
  binding to BAFF, in words: sufficient for high-affinity binding

Source: patent US20080181886A1, “Polypeptides That Bind Baff And/Or April” (Genentech, Inc., priority 2004, published 2008)
